US20250223339A1 (published 2025)

Key:
Assay in all cases: BLI
[1] = biological target: recombinant SARS-CoV-2 Omicron BA.1 RBD
[2] = biological target: recombinant SARS-CoV-2 Delta RBD
[3] = biological target: recombinant SARS-CoV-2 Beta RBD
[4] = biological target: recombinant SARS-CoV-2 Omicron BA.2 RBD
[5] = biological target: recombinant SARS-CoV RBD (SARS-CoV, UniProt P59594 306-527)
[6] = biological target: recombinant SARS-CoV-2 WT (Wuhan-1) RBD

B1: ADI-75684 (antibody, V domains shown)
V domain 1: QVQLQESGPGLVKPSETLSLTCTVSGGSISSDHFYWGWIRQPPGKGLEWIGTTYYTARTNYNPSLKSRVTISVDTSKNQFSLKLTSVTATDTAIYYCARVEVSGGFSGYDFLTPYYFDYWGQGALVTVSS
V domain 2: not shown
B1 was tested, and the Kd [1] was 1.35 nM, the Kd [2] was 1.89 nM and the Kd [3] was 1.05 nM. The Kd [4] was 18.4 nM and the Kd [5] was 2.59 nM.

B2: ADI-75859 (antibody, V domains shown)
VH: QVQLVQSGGGVGQPGRSLRLSCAASGFTFGHYGMHWVRQAPGKGLEWVAAIIYDGSDKQYADSVKGRFTISRDNSKNTVYLQMNSLRPEDTAIYFCAKLGGLYCSGGNCFSGYFDYWGQGTLVTVSS
VL: ETTLTQSPSSLSASVGDRVTITCRASQGISNSLAWYQQKPGKAPKLLLYAASTLESGVPSRFSGSGSGTDFTLTIASLQPEDFATYYCQQYYSSVRFTFGQGTILDLN
B2 showed a Kd [1] of 13.3 nM, a Kd [2] of 0.82 nM and a Kd [3] of 0.89 nM. For the same binder, the Kd [4] was 2.37 nM, the Kd [6] was 0.36 nM and the Kd [5] was 226 nM.

B3: ADI-75738 (antibody, V domains shown)
VH: QVQLQQWGAGLLKPSETLSLTCGVHDGAFSGYFWNWIRQSPVKGLEWIGEVTHSGNTNYNPSLKSRVTMSVDASKNEFSLNLTSVTAADTAVYYCARGDFYSTRLAFDVWGQGSMVTVSS
VL: EIVLTQSPATLSLSPGERATLSCRASQSVSTYLAWYQQRPGQAPRLLIYDASNRATGIPARFSGSGSETDFTLTISSLEPEDFAVYYCQQRSNWLTFGGGTKVEIK
Binder B3 has a Kd [1] of 2.77 nM, a Kd [2] of 1.53 nM and a Kd [3] of 0.56 nM. For the same binder, the Kd [4] was 1.59 nM, the Kd [6] was 0.26 nM and the Kd [5] was 150 nM.

B4: ADI-75700 (antibody, V domains shown)
VH: QVQLQQWGAGLLKPSETLSLTCGVYDGSFSDYFWNWIRQPPGKGLEWIGELTHTGSTNYNPSLKSRVTILADTSKSQFSLNLSSVTAADTAVYYCARGDFYSTRLAFDLWGQGTTVTVSS
VL: EIALTQSPATLSLSPGERATLSCRASQSVSTYLAWYQQKPGQAPRLLIYDASKRATGIPARFNGSGSGTDFTLTISSLEPEDFAVYYCQQRSTWPTFGGGTKVDIK
In the case of B4, the Kd [1] is reported as 7.01 nM, the Kd [2] is reported as 1.22 nM and the Kd [3] is reported as 1.23 nM. It also gave a Kd [4] of 2.51 nM, a Kd [6] of 0.24 nM and a Kd [5] of 62.2 nM.

B5: ADI-75754 (antibody, V domains shown)
VH: QVQLVQSGGDLVQPGGSLRLSCVASGFTFSNYEMNWVRQGPGKGLEWISYISTSGSTYYYADSVKGRFTISRDNARNSLYLQMDSLRVEDTAIYYCLTHPQPQYVRPTQVVWFDPWGQGTLVTVSS
VL: EMTMTQSPGTLSLSPGERATLSCRASESVSSEYLAWHQQRPGQAPRLLIYGASSRPTGIPDRFSGSGSGTDFTLTISRLEPEDFAVYYCHQFASAPITFGQGTRLEIK
B5 was tested, and the Kd [1] was 37 nM, the Kd [2] was 3.45 nM and the Kd [3] was 1.61 nM. The Kd [4] was greater than 300 nM, the Kd [6] was 3.58 nM and the Kd [5] was 1.41 nM.
